{"source": "paper PMC6166713", "test_in_all_cases": "scintillation proximity assay (SPA); 5 nM GST-WASP variant immobilised on protein A SPA fluoromicrospheres via an anti-GST antibody; varying concentrations of [3H]GTP·Cdc42; direct binding isotherm; apparent Kd; low-salt buffer", "key": {"[1]": {"biological_target": "GST-WASP(201–321) F271A (UniProt P42768)"}, "[2]": {"biological_target": "GST-WASP(201–254) (UniProt P42768)"}, "[3]": {"biological_target": "GST-WASP(201–321) V250A (UniProt P42768)"}, "[4]": {"biological_target": "GST-WASP(201–321) K235A (UniProt P42768)"}, "[5]": {"biological_target": "GST-WASP(201–321) S242A (UniProt P42768)"}, "[6]": {"biological_target": "GST-WASP(201–321) W252A (UniProt P42768)"}, "[7]": {"biological_target": "GST-WASP(201–321) H249A (UniProt P42768)"}, "[8]": {"biological_target": "GST-WASP(201–321) I233A (UniProt P42768)"}, "[9]": {"biological_target": "GST-WASP(201–321) G251A (UniProt P42768)"}, "[10]": {"biological_target": "GST-WASP(201–321) F244A (UniProt P42768)"}, "[11]": {"biological_target": "GST-WASP(201–321) L267A (UniProt P42768)"}, "[12]": {"biological_target": "GST-WASP(201–321) L270A (UniProt P42768)"}, "[13]": {"biological_target": "GST-WASP(201–321) H246A (UniProt P42768)"}, "[14]": {"biological_target": "GST-WASP(201–321) P241A (UniProt P42768)"}, "[15]": {"biological_target": "GST-WASP(201–321) wild type (UniProt P42768)"}, "[16]": {"biological_target": "GST-WASP(201–321) K230A/K231A/K232A (UniProt P42768)"}, "[17]": {"biological_target": "GST-WASP(201–321) K225A/R227A (UniProt P42768)"}, "[18]": {"biological_target": "GST-WASP(201–321) K230A/K231A (UniProt P42768)"}, "[19]": {"biological_target": "GST-WASP(201–321) K231A/K232A (UniProt P42768)"}, "[20]": {"biological_target": "GST-WASP(201–321) K225A/K226A (UniProt P42768)"}}, "note": "pKd: −log10 of the molar value."}
{"substance": "Cdc42 Δ7 Q61L (from UniProt P60953 1-191) (natural protein)", "values": [{"measurement": "pKd", "setting": "[1]", "result": 8.30}, {"measurement": "pKd", "setting": "[2]", "result": 7.50}, {"measurement": "pKd", "setting": "[3]", "result": 8.00}, {"measurement": "pKd", "setting": "[4]", "result": 8.10}, {"measurement": "pKd", "setting": "[5]", "result": 8.19}, {"measurement": "pKd", "setting": "[6]", "result": 8.02}, {"measurement": "pKd", "setting": "[7]", "result": 7.37}, {"measurement": "pKd", "setting": "[8]", "result": 7.58}, {"measurement": "pKd", "setting": "[9]", "result": 8.28}, {"measurement": "pKd", "setting": "[10]", "result": 7.19}, {"measurement": "pKd", "setting": "[11]", "result": 8.49}, {"measurement": "pKd", "setting": "[12]", "result": 8.77}, {"measurement": "pKd", "setting": "[13]", "result": 7.37}, {"measurement": "pKd", "setting": "[14]", "result": 7.42}, {"measurement": "pKd", "setting": "[15]", "result": 9.30}, {"measurement": "pKd", "setting": "[16]", "result": 4.44}, {"measurement": "pKd", "setting": "[17]", "result": 5.12}, {"measurement": "pKd", "setting": "[18]", "result": 4.89}, {"measurement": "pKd", "setting": "[19]", "result": 4.66}, {"measurement": "pKd", "setting": "[20]", "result": 5.13}]}
